The record followed here is the DeepSol protein solubility set.

The series is described as follows: soluble on expression in E. coli; label from the status in PepcDB or PDB records.
In the case of “MGPYFGKVSEVSSNSQTTYLPESADATQVQEQLGDFTDSESIPAIVVMVSDEPLTQQDITQLNEVVAGLSELDIVSDEVSPAIPSEDGRAVQVFVPLNPSAELTESVEKLSETLTQQTPDYVSTYVTGPAGFTADLSALEHHHHHH”, the “soluble on expression in E. coli” value is given as “not soluble”. For “MKLLLLIFVPFVTCGLTCMDFMIDCPRIVYYCDETYVQNQCQFSCGICKQDPGVCGDTYFDCDMYDTKCNSPSFQRQCAGTCGLCPGACEDIWDGCSHFLAPCSDDIKSLCPIKCGLCNSTTTPMILTTITPVDPRCVDAGNQCANYSPPCSDDVKIFCPATCGSCSNGTTGVPLVLTTLTPELTTVTVEPITSTLKPTTTTITPTTTTKLPTTTTKKLPPTTPKPPCKDSSPNCAGWAKNGFCTNTFYPPEKRKEYCGKTCRMC” the value was “not soluble”; for “MDSNEIIKRVRERVYREVKKKYTRDDLDTRIQDVLYYRSETYMKLVSFANGKRIKKLADPRKFEKFMDTKGVKIVAEVLDGLNNQPKMQAMEYEQKVLTKVRQWYQKKNHPELVDLEEEAFEQLVEKNIIYKKMKKRLYEEQDNQGFVYSDNFDMQLIRDSCDIEEALYLDITLGDY”, “not soluble”. For “MDFEKIRKWLEITNEYKQSDFWTNVLKYKAPEHFFDSEASTFVYDFYQDEEYNFIIVEMPGVYEEELTIRLLSKTQLLIKGTITPVFPAEMEVLRERYYGEIERIIQLPEAAETHLLQIQLLNGLLHISYPRQVETVAFNKGLLEHHHHHH” the value was “not soluble”; for “MAHHHHHHMDPLAGLTTGSRNVIDDFFRWSRLSLDKFKRDLTVEASAFQAGNLWREQYTKAEVAQMLNGQLALMLGVVDTQMEGTTAASAELMRAVLREADRQRVTLDIDVKSVLNNAGGVNAMGEHGRQLMSGPTGRLAPLTVEEASGEAARQLAEANAEVKRLQAKLQQVTDAYTQVMRGRSSDTENLLSMQDAMNDKERLAAELARRCQGQDPSLAATVQELRAEVAEAKRELASRLHQSTQYQQVKHLLAQRNEQLKMMRERLAAYDPSFARYGDDINAEDD”, “soluble”. For “MSLRLHFHTQEMPMPALLYKADPARAERWRVLFAEHAPDIEWRVWPDIGDPADIHYLGAWLAPDDLQDLLPNLKVLFALSAGVDQLDLSRIPKSLPVVRLLDPGISHGMCEYASFAVLSLHREMLRYRQQQVEGLWKAQPLIPANKRRVGVMGLGLQAQHILSSLKPFGFQLSGWARSAHQVEGVTCYAGEEQLSEFLGQCDILLCVLPLTAQTEGILNRQLFERLPEGAALINMGRGGHLVEADLLEALDSGQLSAAVLDVLQQEPAPADHPFWQHPKILLTPHVAAMTQPESAFPGLLDNIRRFERGEAMQGQVNRGEGHHHHHH” the value was “soluble”.

In the case of “MSQPESPEQRRTAILATAERILRSGSPLTLGKVAQEVGISRTALYRYVSGIDEIIETLATKDFPHWLTSLRSAMAAAPTPKQRALCWAIESIKLGRETDHAWLATLSSLNLSENCRNAIASEHSKIDQLLRVELAQLGTPHIELTVATVRAVVMTAIQTPSSTEADDYFTATISAIIDASC”, the “soluble on expression in E. coli” value is “not soluble”.

As for “SNLLYKRWVERCRNIVDKLSEDRIGYVHVKGMDSQSFREVYSEVLGRCRNKEAIIVDTRHNGGGWLHDDLATLLSGKEYQRFVPRGQYIGSDPFNKWLKPSCVLVCEDNYSNAHGFPWVYKELKIGKLIGAPVPGTMTAVWWENQIDPSIVFGIPQVGCMDMRGQYAENHQLSPDIEVYNTPEKALAGEDQQLEAAVQEMLKTIGEKK”, the “soluble on expression in E. coli” value was “not soluble”. Take “SRDEIATTVFFVTRLVKKHDKLSKQQIEDFAEKLMTILFETYRSHWHSDCPSKGQAFRCIRINNNQNKDPILERACVESNVDFSHLGLPKEMTIWVDPFEVCCRYGEKNHPFTVASFKGRWEEWELYQQISYAVSRASSDVSSGTSCDEESCSKEPRVIPKVSNPKSIYQVKSVPVLFYTFFLSNSKKNALIMKTKKQKNMERTKL”: the “soluble on expression in E. coli” value was “soluble”. The result for “APWFLEYSKSECHFYNGTQRVRLLVRYFYNLEENLRFDSDVGEFRAVTELGRPDAENWNSQPEFLEQKRAEVDTVCRHNYEIFDNFLVPRRVEPTVTVYPTKTQPLEHHNLLVCSVSDFYPGNIEVRWFRNGKEEKTGIVSTGLVRNGDWTFQTLVMLETVPQSGEVYTCQVEHPSLTDPVTVEW” reads “soluble”; that for “MNTENPIEKPFRKTGDPVDLTSESPLHPRRKSRRIMVGPVPVGGGAPISVQSMTNTLTANVPATLQQIAELTAAGCDIVRVAVPSQDDADALPEICRKSPIPVIADIHFQSKYVFQAIDAGCAAVRVNPGNIRKFDEVGPDICKAATDAGISLRIGVNAGSLDKELYAKYGGPTPEALVASALKEAHMFEDVGFHDFKISVKHHDVITMVETYRLLASKGDWPLHLGVTEAGPAWQGTIKSCLAFGALLAEGIGDTIRVSLSAPPAEEVKVGCKLLEYMGLRPRKFDIISCPSCGRAQVDVIQLASAVTEGLKDVTAPIRVAVMGCIVNGPGEAREADLGVASGNGKGQIFIKGKVIKTVPEDQIVDTLLTIANDIAAQMEADGQVPVNSTGPVVVPIQHPGHLEHHHHHH”, “not soluble”; that for “PQEKLKLLAFTGTKGKTTAAYFAYHMLKESYKPAMFSTMNTTLDGKTFFKSQLTTPESLDLFAMMAECVTNGMTHLIMEVSSQAYLVDRVYGLTFDVGVFLNISPDHIGPIEHPTFEDYFYHKRLLMENSRAVVINSGMDHFSFLADQVADQEHVFYGPLSDNQITTSQAFSFEAKGQLAGHYDIQLIGHFNQENAMAAGLACLRLGASLADIQKGIAKTRVPGR”, “not soluble”. The result for “MSHKFSRRAFAVLTAAAISTSAFATTAPSAIAEPVSNVATADDSSVATSENSLDWGFKASWRTYVTGPWTGGTVDATGGATVNEDGTYNFTLGTGSNYDVDTEKGQLNYEGTVAFASDAHGFNITLSNPQITVEGDTATLSAELSDNAAPEETSTTRVDVAEFELTAPEVSETDADITYTWTDASGTFLETLQPEELSRYAGQEADALSFSITVDKASENPSDDVATGSSSSFLSTILNFLQQLASPLLKLFGSLSS” reads “not soluble”; that for “MKIKTLLSIITAMALLILGTEVATAQSTGVPTIDSGSPESNQPLNDTMITTKVKAELAIAEGIKSGDISVETVNGVVILTGTQPNEMLIKKAEEVAKSVKDVKQVDISGLTVNTTTAD”, “not soluble”. For “MQNKIQVKSVEKRENALIFCAENSEIEVKELSARNHVLVDSDNLSFLYILENESSFIYVSIPHTCWEAMHEAMNNDVVMFVRVNDIEMELEGLKEEVEYLVENIEGNANYGEELVTAVEKVFL” the value was “not soluble”; for “MSLRRILITGANGFVGQILCSMLRQAGHHVIALVGAESALSSHADESVRCDIRDASGLEQALCRAAPTHVVHLAAITHVPTSFNNPVLTWQTNVMGSVNLLQALQRSAPEAFVLFVSSSEVYGETFKQGTALGEDSACKPMNPYAASKLAAEAAFNEYFRQGRKGIVVRPFNHIGARQSPDFATASFARQIALIEAGKQAPQLKVGNLQAARDFLDVHDVCDAYVALLQLADEQERYPGCLNICRGEPTSLQTLLTQLMALSSSVIEVTIDPDRMRPSDIPSAFGNNSAMRCATGWKPKTKLDDTLEALLNYWRHEVISAEGHHHHHH”, “soluble”; for “MGKTKPVLQCTLCGALVDSGNGLPMHEETYAVLRVEAMPRQWRQALENVMAKTIASPPPSAMPGTDPLEAVWFTPWRTNSWQPNTVDCRQVLNGTLDELRVLSQEVAALAATQGFSACVEFV”, “not soluble”. “MVRIRWFFIRHAESEANVVERWRIAGRSEAARLTERGERQARVVGEAVAIRLEQVLRVDGGDAGGVSGDAGRRRVLAPVAFTSPLLRARQTAALVLEQVAQPVKLEPVDDLAEVYQGLWEDALRSEVHTPETLQAMARNPYEFRAPGGEAQADVERRVLRAVSRMSQRVLSLLSLELEENEQTDVIVLVFTHGYVCKCLIRSVLDASPHLTGQIQVDNGALVELWLEPAAQQGALTSAAELGMWTVLRINDTWGQLTASMR”: the “soluble on expression in E. coli” value is on record as “not soluble”.

As to “MGSDKIHHHHHHLRRLLNTLYVTTPDSYLAREGENILIRLEEKIVFRIPSHNIEAIVYFGYPGASPSLLGLCAEKGITVSFFSPNGRFLARVEGPQTGNVLLRRKQYRMADEENQVPVLAKYFIAAKILNSRAVLQRGRRDHPDKVGDSIERSIALLAGSVKKVFDSENLNDIRGLEGDAAQRYFSEVDNLILEQKQDFFMAARSRRPPLDNVNALLSFFYTLLVHECRAALESVGLDPAVGFLHRDRPGRPSLALDLMEELRPYLGDRMVLSLINRKQINKDDFITKENGAVYVLPDTRKMLLTVWQKRKQEEIIHPYLEEKIPIGLLPYTQALLLARFLRGDLDAYPAFIWK”, the “soluble on expression in E. coli” value was “not soluble”. For “FGDFNYNTTFTATTNKNKIIQLARDVLNPVTNTLIDLTDIQVGRFRLREGGEIGTVYANEWLKRDGDNYIDYQPGQALTTETTSPYKLGSVNPKWNLGWQHGFSYKGFNLNLLFTARIGGIAISKTQAMLDRYGVSEASADARDAGGVSLGYFKVDPKTYYDAVSNLDAYYTYSATNVRLQEARLTYTFPNKWFKGTVNNLSLSVYGTNLWMIYNKAPYDPELTASTGTFGQGYDYFMLPSQSTYGLSLKFGF” the value was “not soluble”; for “MNHPAHHGPTVTPKRRHPDSTGAAPVGIVIATRNRRASLAVTVRNLLALPERPDVLVVDNASTDDTRAMLARDFPQVRVLPLPYNRGALARTHGVRALDTPYVAFSDDDSWWAPGALGAAARHFDDHPRLGLLSARTLVGPGDAADPLNDLLADSPLGTATDLPGTQVLGFLGCAAVARRTAYLDAGGYHPLLFFGGEETLLAYDLAARGWGVTHCPDVIAHHHPHPRPRTGRPAVVRRNALLTAWLRRPLPHALARTRALAADARRDPHARHALRETLTRLPAALRARRPLPPHVERAARLLDGADGPDGPGGAVSLEHHHHHH”, “soluble”; for “MSTFFRQTAQAMIAKHINRFPLLKLDQVIDWQPIEQYLNRQKTRYLRDHRGRPAYPLLSMFKAVLLGQWHSLSDPELEHSLITRIDFNLFCRFDELSIPDYSTLCRYRNWLAQDDTLSELLELINCQLTEKGLKVEKASAAVIDATIIQTAGSEQRQAIEVDEEGQISGQTTPSKDSDARWIKKNGLYKLGYKQHTRTDAEGYIEKLHITPANAHECKHLSPLLEGLPEGTTVYADKGYDSAENRQHLEEHQLLDGIMSKACRNRPLSEVQTKRNRYLSKTRYSGLNLNQDKATKPQTVQIVRQGEATPYWFKFNPLYVVEQSFGTLHRKFRYARAAYFGLIKVSAQSHLKAMCLNLLKAANRLSAPAAA”, “not soluble”. The result for “MDSGMVTPELKKAFAERGIDIIPVDVGTKMLVNELHPSHHDSTQVVIGSPIIPAPGNIDPQLRSYRIRRRMTVEANPFLLDHVIAGTPVLPATCGMSWMINACEECYPGYRYFRCQDFKILKGITFNDKVASEHILEIQEVAKHGSESIEFKTKVLSKTPEGKIHYHFSAHITIVRELPAAPVYESLDMTEDHTIGAIGKDFYQKGGLSLFHGISFQQITRVLNINSQKITVECCWAEIPLETQGQFPVKWHNPYATDLSTQPLWLWLSHVHQEVCLPGQITKSEQFRAIPRNKPFYVSCEIEHKTPSGVTADIILHDREGKIYFRIYQAKAIIAPMNLHLEHHHHHH” reads “not soluble”; that for “MRHAVHQELIDTNPAANLGGVTTPPVRRHYPALPLERLPELLERIGAYHQGRELTRHAVLLMLHVFIRSSELRFARWSEIDFTNRVWTIPATREPIIGVRYSGRGAKMRMPHIVPLSEQSIAILKQIKDITGNNELIFPGDHNPYKPMCENTVNKALRVMGYDTKKDICGHGFRAMACSALMESGLWAKDAVERQMSHQERNTVRMAYIHKAEHLEARKAMMQWWSDYLEACRESYAPPYTIGKNKFIP”, “not soluble”.
